The text below walks through data of PMC2174279 (The Journal of Cell Biology, 2000).

What all share (experiment): two-hybrid
The target in assay [1] is T1, peptide PRP2 (PPPYQAPHPP), LexA bait.
T1 peptide: PPPYQAPHPP

The target of assay [2] is T2, peptide PRP1 (QPDHPPPSPP), LexA bait.
T2 peptide: QPDHPPPSPP

The target in assay [3] is T3, peptide PBS2 (NKPLPPLPVA), LexA bait (S. cerevisiae).
T3 peptide: NKPLPPLPVA

B1: Myo5p-SH3-AD (1020-1219) (domain or fragment)
chain: NKAATRRSVPNPASTLTASQSNARPSPPTAATRATPAATPAAAAMGSGRQANIPPPPPPPPPSSKPKEPMFEAAYDFPGSGSPSELPLKKGDVIYITREEPSGWSLGKLLDGSKEGWVPTAYMKPHSGNNNIPTPPQNRDVPKPVLNSVQHDNTSANVIPAAAQASLGDGLANALAARANKMRLESDDEEANEDEEEDDW
Regarding B1, the “LacZ expression (two-hybrid)” value in assay [1] was determined as 255 Miller units; in assay [2] it was 406 Miller units.

B2: SH3 domain of Sho1p (176-367) (domain or fragment)
chain: not shown
Take B2: the “LacZ expression (two-hybrid)” value in assay [3] turned out to be 190 Miller units.
